Where a chain is given by its changes, count along the chain named. Names may count otherwise. Like-named read-outs stand apart in the source and are kept apart here.
Tests used:
[1] = Stopped-flow association kinetics of Pi with rhodamine-PBP; format: binding
Text: A stopped-flow apparatus was used to determine association and dissociation kinetics of Pi from rhodamine-PBP.
A representative set of fluorescence traces is shown in FIG. 4A, all normalized to 100% for the initial intensity, but offset by 15% from each other. As the concentration of Pi and the rate increase, a significant proportion of the fluorescence trace is lost in the dead time of the stopped-flow instrument, causing an apparent decrease in intensity.
It is apparent that the rate reaches a limiting high value. This can be interpreted in terms of a two-step mechanism, binding itself (step 1), then a conformation change (step 2):
The fluorescence change occurs in step 2 and is likely to be concomitant with the closure of the binding cleft. It is this process that limits the overall rate at high Pi concentration. The data in FIG. 4B fitted to a hyperbola give 1/K1=2.2 μM and k+2+k−2=267 s^−1 (at 10° C.).

[2] = Stopped-flow dissociation kinetics of Pi from rhodamine-PBP; settings: 10° C.
Protocol: Absorbance spectra were obtained using a Beckman DU640 spectrophotometer. Fluorescence measurements were obtained on a Perkin Elmer LS50B or Cary Eclipse fluorimeter with xenon lamp. Stopped flow experiments were carried out on a HiTech SF61MX apparatus, with a mercury-xenon lamp and HiTech IS-2 software, a monochromator and 4 mm slits on the excitation light (550 nm for rhodamine) and a 570 nm cut-off filter on the emission. The stated concentrations are those in the mixing chamber, unless stated otherwise.
0.25 unit mL^−1 PNPase and 100 μM 7-methylguanosine were present with the wild-type PBP to ensure that it was free of Pi prior to mixing.

[3] = Fluorescence change of labelled PBP on Pi binding; settings: for fluorescence increase with Pi: Pi-bound vs Pi-free, typical product, 10 mM PIPES pH 7.0
Text: Fluorescence spectra were obtained under the same conditions. Excitation was at 555 nm. The fluorescence signals were normalised to 100%, representing the maximum intensity in the presence of Pi.

[4] = Fluorescence titration of labelled PBP with Pi (binding capacity); settings: 20° C.
Protocol: This fluorescence represents the value when approximately Pi-free. The lines shown in FIG. 3 are a best fit to data from 0 to 4 μM added Pi, and a horizontal line.

[5] = similar titration, reference 25; cited from earlier work

B1: rhodamine-PBP: E. coli PBP Ala17Cys/Ala197Cys (17/197) mutant doubly labelled with 6-IATR (conjugate, UniProt P0AG82 26-346, looked up, variant A17C A197C)
Phosphate-binding protein PstS: EASLTGAGATFPAPVYCKWADTYQKETGNKVNYQGIGSSGGVKQIIANTVDFGASDAPLSDEKLAQEGLFQFPTVIGGVVLAVNIPGLKSGELVLDGKTLGDIYLGKIKKWDDEAIAKLNPGLKLPSQNIAVVRRADGSGTSFVFTSYLAKVNEEWKNNVGTGSTVKWPIGLGGKGNDGIAAFVQRLPGAIGYVEYCYAKQNNLAYTKLISADGKPVSPTEENFANAAKGADWSKTFAQDLTNQKGEDAWPITSTTFILIHKDQKKPEQGTEVLKFFDWAYKTGAKQANDLDYASLPDSVVEQVRAAWKTNIKDSSGKPLY
modifications: doubly labelled with 6-IATR rhodamine
notes: E. coli PBP Ala17Cys/Ala197Cys (17/197) mutant doubly labelled with 6-IATR
k+2+k−2 (conformation change step 2) ([1]; hyperbola fit, 10° C., 10 mM PIPES pH 7.0): 267 s⁻¹ | Kd ([1]; hyperbola fit, 10° C., 10 mM PIPES pH 7.0, read-out: 1/K1 (binding step 1)): 2200 nM | association kinetics compared with MDCC-PBP ([1]; rhodamine-PBP at 10° C. vs MDCC-PBP at 5° C.): slower than that found with MDCC-PBP at 5 °C | Pi dissociation rate ([2]; best fit exponential, excess 10 μM wild-type PBP): 6.6 s⁻¹ | Kd ([2]; read-out: overall dissociation constant k−2/k+2K1, from association and dissociation kinetics): 60 nM | fluorescence increase with Pi [3]: 18 fold | fluorescence increase with Pi, maximum / best batch ([3]; emission at 578 nm (λmax), depends on purity of doubly labelled species, listed as A17C-A197C): up to 30 fold | binding capacity for Pi [4]: ~100%

B2: RRC2M: here the product of A17C-A197C mutant PBP labelled with the maleimide Rhodamine Red C2 (conjugate, UniProt P0AG82 26-346, looked up, variant A17C A197C)
Phosphate-binding protein PstS: B1 Phosphate-binding protein PstS
modifications: Rhodamine Red C2 maleimide labels
fluorescence increase with Pi [3]: little fluorescence change

B3: K229C-E302C: E. coli PBP Lys-229/Glu-302 to Cys double mutant, doubly labelled with 6-IATR (conjugate, UniProt P0AG82 26-346, looked up, variant K229C E302C)
Phosphate-binding protein PstS: B1 Phosphate-binding protein PstS with C17A, C197A, K229C, E302C
modifications: 6-IATR labels
notes: E. coli PBP Lys-229/Glu-302 to Cys double mutant, doubly labelled with 6-IATR
binding capacity for Pi [4]: ~100%

B4: MDCC-PBP: prior-art MDCC-labelled PBP, label linked via a chiral centre on a succinimide (conjugate, UniProt P0AG82 26-346, looked up)
Phosphate-binding protein PstS: B1 Phosphate-binding protein PstS with C17A, C197A
modifications: MDCC fluorophore label
notes: prior-art MDCC-labelled PBP, label linked via a chiral centre on a succinimide
binding capacity for Pi [5]: 75%
